This is an account of results in patent publication US20070020327A1.

First the molecules themselves.
B1: … (PSA, position 169) (peptide)
peptide: CVDLHVISNDV
modifications: not checked
B2: … (PSA, position 230) (peptide)
peptide: CALPERPSL
modifications: not checked
B3: … (PSM, position 365) (peptide)
peptide: AVEPDRYVIL
modifications: not checked
B4: … (PSA, position 62) (peptide)
peptide: CIRNKSVILL
modifications: not checked
B5: … (PSA, position 180) (peptide)
peptide: CAQVHPQKVT
modifications: not checked
B6: … (PAP, position 372) (peptide)
peptide: CMTTNSHQGT
modifications: not checked
B7: … (PSA, position 180) (peptide)
peptide: CAQVHPQKV
modifications: not checked
B8: … (PSA, position 62) (peptide)
peptide: CIRNKSVIL
modifications: not checked
B9: … (PSA, position 131) (peptide)
peptide: AVKVMDLPT
modifications: not checked
B10: CIRNKSVI (PSA, position 62) (peptide)
peptide: CIRNKSVI
modifications: not checked
B11: … (PSM, position 365) (peptide)
peptide: AVEPDRYVI
modifications: not checked
B12: … (Kallikrein, position 234) (peptide)
peptide: CALPEKPAV
modifications: not checked
B13: PAP.112 … (peptide)
peptide: TLMSAMTNL
modifications: not checked
B14: PSA.118 … (peptide)
peptide: MLLRLSEPAEL
modifications: not checked
B15: PSM.663 … (peptide)
peptide: MMNDQLMFL
modifications: not checked
B16: PSM.469 … (peptide)
peptide: LMYSLVHNL
modifications: not checked
B17: PAP.6 … (peptide)
peptide: LLLARAASLSL
modifications: not checked
B18: PSA.161 … (peptide)
peptide: FLTPKKLQCV
modifications: not checked
B19: HuK2.165 … (peptide)
peptide: FLRPRSLQCV
modifications: not checked
B20: PSM.711 … (peptide)
peptide: ALFDIESKV
modifications: not checked
B21: PSM.27 … (peptide)
peptide: VLAGGFFLL
modifications: not checked
B22: PAP.284 … (peptide)
peptide: IMYSAHDTTV
modifications: not checked
B23: HuK2.175 … (peptide)
peptide: SLHLLSNDMCA
modifications: not checked
B24: PAP.135 … (peptide)
peptide: ILLWQPIPV
modifications: not checked
B25: PSM.26 … (peptide)
peptide: LVLAGGFFL
modifications: not checked
B26: PSM.288 … (peptide)
peptide: GLPSIPVHPI
modifications: not checked
B27: PSM.662 … (peptide)
peptide: RMMNDQLMFL
modifications: not checked
B28: PSA.166 … (peptide)
peptide: KLQCVDLHV
modifications: not checked
B29: PAP.299 … (peptide)
peptide: ALDVYNGLL
modifications: not checked
B30: PSM.667 … (peptide)
peptide: QLMFLERAFI
modifications: not checked
B31: PSA.143 ALGTTCYA (peptide)
peptide: ALGTTCYA
modifications: not checked
B32: PSA.118 … (peptide)
peptide: MLLRLSEPA
modifications: not checked
B33: PAP.92 … (peptide)
peptide: FLNESYKHEQV
modifications: not checked
B34: PSA.117 … (peptide)
peptide: LMLLRLSEPA
modifications: not checked
B35: PAP.21 … (peptide)
peptide: LLFFWLDRSV
modifications: not checked
B36: PAP.30 … (peptide)
peptide: VLAKELKFV
modifications: not checked
B37: PSM.168 … (peptide)
peptide: GMPEGDLVYV
modifications: not checked
B38: PSM.441 … (peptide)
peptide: LLQERGVAYI
modifications: not checked
B39: … (PSM, position 193) (peptide)
peptide: KINCSGKIVI
modifications: not checked
B40: … (PSM, position 122) (peptide)
peptide: KTHPNYISI
modifications: not checked
B41: … (PSM, position 200) (peptide)
peptide: IVIARYGKV
modifications: not checked
B42: … (PSM, position 623) (peptide)
peptide: KTYSVSFDSL
modifications: not checked
B43: … (PSM, position 66) (peptide)
peptide: KAENIKKFL
modifications: not checked
B44: … (PSM, position 122) (peptide)
peptide: KTHPNYISII
modifications: not checked
B45: … (PSM, position 304) (peptide)
peptide: KLLEKMGGSA
modifications: not checked
B46: … (PSM, position 193) (peptide)
peptide: KINCSGKIV
modifications: not checked
B47: … (PSM, position 723) (peptide)
peptide: KAWGEVKRQI
modifications: not checked
B48: … (PAP, position 282) (peptide)
peptide: KLIMYSAHDT
modifications: not checked
B49: … (PSM, position 199) (peptide)
peptide: KIVIARYGKV
modifications: not checked
B50: … (PAP, position 234) (peptide)
peptide: KLRELSELSL
modifications: not checked
B51: … (Kallikrein, position 131) (peptide)
peptide: KITDVVKVLGL
modifications: not checked
B52: peptide 1419.13 … (HuK2.120.V11) (peptide)
peptide: DLMLLRLSEPV
modifications: not checked
B53: … (Kallikrein, position 226) (peptide)
peptide: ITSWGPEPCAL
modifications: not checked
B54: peptide 1126.14 (PSM.469) (peptide)
peptide: LMYSLVHNL
modifications: not checked
B55: peptide 1126.10 (PSM.27) (peptide)
peptide: VLAGGFFLL
modifications: not checked
B56: peptide 1129.08 (PSM.711) (peptide)
peptide: ALFDIESKV
modifications: not checked
B57: Kallikrein (hK2) peptide … (position 11, 11 amino acids) (peptide)
peptide: SVGCTGAVPLI
modifications: not checked
B58: Kallikrein (hK2) peptide … (position 175, 9 amino acids) (peptide)
peptide: SLHLLSNDM
modifications: not checked
B59: … (PSA, position 119, 11 amino acids) (peptide)
peptide: LLRLSEPAELT
modifications: not checked
B60: peptide 1126.06 (PSM.662) (peptide)
peptide: RMMNDQLMFL
modifications: not checked
B61: Kallikrein 146 … (peptide)
peptide: PALGTTCYA
modifications: not checked
B62: PSA 142 … (peptide)
peptide: PALGTTCYA
modifications: not checked

Usually IC50 stands for the concentration needed to halve the response being measured.

Some results are limits rather than exact numbers.

The first assay concerns the target HLA-A*0201 (human). Description: inhibition of 125I-labelled standard peptide binding to purified HLA-A*0201, gel filtration.
Details: not given
For orientation: In gel filtration, larger molecules generally elute earlier.
Consider B1, for which the binding affinity ratio (IC50 of standard peptide / IC50 of test peptide) was found to be 0.0001. The same measure, in the same setting: with B2 the figure was 0.0001; with B3, 0.0002. On the same count and under the same terms, with B4 the figure was 0.0001; with B5, 0.0001; with B6, 0.0002. On the same count and under the same terms, with B7 the figure was 0.0002; with B8, 0.0003. For B9, the binding affinity ratio (IC50 of standard peptide / IC50 of test peptide) was determined as 0.0001.

B10: the binding affinity ratio (IC50 of standard peptide / IC50 of test peptide) was found to be 0.0001.

Regarding B11, the binding affinity ratio (IC50 of standard peptide / IC50 of test peptide) amounted to 0.0001.

The assay is the same for the next values; noted with them: remark: other sources report otherwise.
As for B12, the binding affinity ratio (IC50 of standard peptide / IC50 of test peptide) turned out to be 0.0002.

A further assay deals with HLA-A*0201 (human). Description: inhibition of 125I-labelled probe peptide binding to purified HLA-A*0201, gel filtration.
Details: not given
Take B13: the IC50 is below 200 nM. In turn, B14 gave an IC50 below 200 nM.

Turning to B15, the IC50 is below 200 nM. In turn, B16 registered an IC50 below 200 nM. Molecule B17 had an IC50 below 200 nM.

Still in this assay, the particulars now being: remark: other sources report otherwise.
As to B18, the IC50 is below 200 nM. B19: the IC50 is below 200 nM. B20: the IC50 is below 200 nM. Molecule B21 yielded an IC50 below 200 nM. In turn, B22 had a concentration for half-maximal inhibition (IC50) below 200 nM. Turning to B23, the IC50 is below 200 nM. B24 registered an IC50 below 200 nM. In turn, B25 registered an IC50 below 200 nM.

Molecule B26 returned an IC50 below 200 nM.

Turning to B27, the IC50 is below 200 nM. B28 showed an IC50 below 200 nM. Same read-out and setting: next, B29: below 200 nM; B30: below 200 nM; B31: below 200 nM. On the same count and under the same terms, next, B32: below 200 nM; B33: below 200 nM; B34: below 200 nM. Still for that read-out and setting: next, B35: below 200 nM; B36: below 200 nM; B37: below 200 nM. The molecule B38 registered an IC50 below 200 nM.

The next assay has as its target HLA-A*0201 (human). Description: competitive inhibition of 125I-labelled standard peptide binding to purified HLA, gel filtration.
Details: not given
As for B39, the binding affinity ratio (ratio to standard peptide) came to 0.0001. On the same count and under the same terms, with B40 the figure was 0.0002; with B41, 0.0001.

On to B42, for which the binding affinity ratio (ratio to standard peptide) is 0.0002.

With B43, the binding affinity ratio (ratio to standard peptide) worked out at 0.0002. In the case of B44, the binding affinity ratio (ratio to standard peptide) was determined as 0.0001. Still for that read-out and setting: next, B45: 0.0003; B46: 0.0002; B47: 0.0001. The same measure, in the same setting: next, B48: 0.0002; B49: 0.0002. Take B50: the binding affinity ratio (ratio to standard peptide) came out at 0.004.

Staying with this assay, now noted: remark: other sources report otherwise.
B51: the binding affinity ratio (ratio to standard peptide) is 0.0002. B52 gave an IC50 of 50 nM. As to B53, the binding affinity ratio (ratio to standard peptide) came out at 0.0003.

The target of another assay is HLA-A*0202 (human). Description: competition with 125I-labelled standard peptide for purified HLA, gel filtration.
Details: not given
With B54, the IC50 is 0.4 nM.

The assay is the same for the next values; noted with them: remark: other sources report otherwise.
In the case of B55, the IC50 worked out at 0.2 nM. The same measure, in the same setting: next, B56: 0.7 nM.

The same assay, now with this note: remark: other sources report otherwise; scale: ratio.
As for B57, the binding affinity ratio was determined as 0.001.

A further assay deals with HLA-A*0201 (human). The assay is described as above.
Details: not given
B54 showed an IC50 of 64 nM.

Staying with this assay, now noted: remark: other sources report otherwise; scale: ratio.
On to B58, for which the binding affinity ratio was found to be 0.0003. Same read-out and setting: next, B57: 0.01. The same measure, in the same setting: next, B59: 0.0023.

Another assay deals with HLA-A*0206 (human). The assay is described as above. To be noted: remark: other sources report otherwise.
With B60, the IC50 was determined as 40 nM. Consider B61, for which the binding affinity ratio (IC50 of standard peptide / IC50 of test peptide) is 0.0002.

In the case of B62, the binding affinity ratio (IC50 of standard peptide / IC50 of test peptide) is 0.0002.

The assay is the same for the next values; noted with them: remark: other sources report otherwise; scale: ratio.
Regarding B58, the binding affinity ratio was -0.0001.

Turning to B59, the binding affinity ratio was 0.0002.
